Experimental data from publication doi:10.1101/2022.04.11.487660 (bioRxiv, 2022).

Molecular target: lysozyme (UniProt P00698)
Experiment: ELISA

B1: camel nanobody 1ZVH, displayed on phage (VHH)
VHH: DVQLVESGGGSVQAGGSLRLSCAASGYIASINYLGWFRQAPGKEREGVAAVSPAGGTPYYADSVKGRFTVSLDNAENTVYLQMNSLKPEDTALYYCAAARQGWYIPLNSYGYNYWGQGTQVTVSS
B1: binds.
